US20260166131A1, “METHOD FOR PROMOTING PATHOLOGICAL TDP-43 PROTEIN DEGRADATION, AND DRUG” (TALENGEN INTERNATIONAL LIMITED, priority 2022, published 2026)
Entries after “also recorded” stand apart in the source; their conditions may differ. Read-outs that look alike come from different tables or passages of the source.

How the values were obtained:
[1] = Brain tissue plasminogen level in MPTP Parkinson's model mice (ELISA); format: in vivo, mouse; conditions: 50 mg/kg tail vein
[2] = Plasma plasminogen level after tail vein injection in SOD1-G93A mice (ELISA); format: in vivo, mouse
Procedure: Twenty-seven 10-15 week-age B6.Cg-Tg (SOD1-G93A) 1Gur/J (SOD1-G93A) mice (pedigree number: 004435) (referred to as SOD1-G93A mice) (breeding mice were purchased from Jackson Laboratory, USA) were randomly divided into three groups: three in the vehicle control group, 12 in the 6 mg/kg plasminogen group, and 12 in the 50 mg/kg plasminogen group. The mice in the vehicle control group were injected with vehicle at 5 ml/kg by tail vein, the mice in the 6 mg/kg plasminogen group were injected with plasminogen (1.2 mg/ml) at 6 mg/kg body weight by tail vein, and the mice in the 50 mg/kg plasminogen group were injected with plasminogen (10 mg/ml) at 6 mg/kg body weight by tail vein. The mice in the vehicle control group were killed 2 hours after administration, and their blood was collected. Three mice in the 6 mg/kg plasminogen group and three mice in the 50 mg/kg plasminogen group were killed at 2, 6, 12 and 24 hours after administration, and their blood was collected. After the blood was centrifuged (3500 rpm, 10 min, 4° C.), the supernatant was taken to test according to the instructions of Human Plasminogen ELISA Kit (manufacturer: AssayMax, catalog number: EP1200-1). The concentration of each sample was calibrated by using human plasminogen working standard as the internal standard. The calibrated concentration was divided by the total protein concentration to calculate the amount of plasminogen per unit of total protein in each sample and perform statistical analysis.

[3] = Human plasminogen level in nuclei of brain, spinal cord and kidney tissue of SOD1-G93A mice (ELISA); format: in vivo, mouse; conditions: 50 mg/kg tail vein every day, 7 days, vs vehicle group, P<0.001
Procedure: Ten 9-week-age SOD1-G93A mice were randomly divided into two groups: a vehicle group and a plasminogen group, with 5 mice in each group. Five C57 mice of the same week-age were selected as normal control mice. […] The vehicle and plasminogen were administered continuously for 7 days. The mice were killed 7 days later, and brain, spinal cord and kidney tissues were collected. The tissue was cut into small pieces to digest with 0.25% trypsin (Beyotime Biotechnology, C0201-500 mL), then filtering with a 200-mesh cell sieve to obtain a single cell suspension. […] The extracted nuclear protein was tested for human plasminogen level by ELISA.

[4] = Spinal cord tissue plasminogen level in MPTP Parkinson's model mice (ELISA); format: in vivo, mouse; conditions: 50 mg/kg tail vein
[5] = Parkinson's model mice, 50 mg/kg tail vein
Procedure: Eighteen 6-week-age male C57BL/6J mice were injected intraperitoneally with 1-methyl-4-phenyl-1,2,3,6-tetrahydropyridine (MPTP) solution at a dose of 35 mg/kg/mouse for 5 consecutive days to establish a Parkinson's model. Preparation of MPTP solution: 45 mg of MPTP (Sigma, M0896) was dissolved in 9 ml of physiological saline solution to prepare a final concentration of 5 mg/ml. The mice were randomly divided into two groups according to their body weight: 6 mice in vehicle group, 12 mice in plasminogen group; and administration was begun to record as day 1. The mice in the plasminogen group were injected with 50 mg/kg body weight of plasminogen solution by tail vein, and the mice in the vehicle group were injected with 5 mL/kg body weight of vehicle solution (10 mM citric acid-sodium citrate solution, pH 7.4) by tail vein.

[6] = Plasma plasminogen level after tail vein injection in FAD (Alzheimer's model) mice (ELISA); format: in vivo, mouse
Procedure: Twenty-seven 16-week-age B6SJL-Tg (APPSwFlLon, PSEN1*M146L* L286V) 6799Vas Mmjax (Stock Number: 034840) (FAD mice for short) (breeding mice were purchased from Jackson Laboratory, USA) were randomly divided into three groups: three mice in vehicle control group, 12 mice in 6 mg/kg plasminogen group, and 12 mice in 50 mg/kg plasminogen group. The mice in the vehicle control group were injected with vehicle at 5 ml/kg by tail vein, the mice in the 6 mg/kg plasminogen group were injected with plasminogen (1.2 mg/ml) at 6 mg/kg body weight by tail vein, and the mice in the 50 mg/kg plasminogen group were injected with plasminogen (10 mg/ml) at 6 mg/kg body weight by tail vein. The mice in the vehicle control group were killed 2 hours after administration, and their blood was collected. Three mice in the 6 mg/kg plasminogen group and three mice in the 50 mg/kg plasminogen group were killed 2, 6, 12 and 24 hours after administration, and their blood was collected. After the blood was centrifuged (3500 rpm, 10 min, 4° C.), the supernatant was taken to detect according to the instructions of Human Plasminogen ELISA Kit (manufacturer: AssayMax, catalog number: EP1200-1). The concentration of each sample was calibrated by using human plasminogen working standard as the internal standard. The calibrated concentration was divided by the total protein concentration to calculate the amount of plasminogen per unit of total protein in each sample and perform statistical analysis.

TDP-43 = TDP-43 (Mus musculus, UniProt Q921F2); experiment: Immunofluorescence co-localization staining of plasminogen and TDP-43 in gluteal muscle tissue of SOD1-G93A mice; format: in vivo; set-up: from tissue; host or cells: mouse spinal cord, gluteal muscle, brain, kidney cell nuclei; conditions: 1 mg/mouse tail vein every day
Sequence of TDP-43 (Q921F2 whole entry): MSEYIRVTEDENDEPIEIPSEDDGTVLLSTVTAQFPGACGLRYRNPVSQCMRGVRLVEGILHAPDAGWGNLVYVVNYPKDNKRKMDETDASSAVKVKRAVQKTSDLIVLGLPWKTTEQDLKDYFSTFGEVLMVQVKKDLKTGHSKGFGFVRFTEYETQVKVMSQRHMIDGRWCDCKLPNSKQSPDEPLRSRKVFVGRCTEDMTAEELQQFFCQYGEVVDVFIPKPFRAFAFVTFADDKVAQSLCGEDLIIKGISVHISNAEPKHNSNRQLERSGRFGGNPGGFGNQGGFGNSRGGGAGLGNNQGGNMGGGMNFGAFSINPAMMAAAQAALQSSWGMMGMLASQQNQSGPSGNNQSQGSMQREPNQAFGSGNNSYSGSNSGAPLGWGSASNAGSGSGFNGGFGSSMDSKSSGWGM
Procedure: Five wild-type male mice and nine male SOD1-G93A mice of similar week-age were selected. Wild-type mice served as the blank control group, and SOD1-G93A mice were observed and recorded from the time of hind leg tremor when they became ill at week 14, and the onset time of each mouse was recorded. Administering to mice 14 days after the onset of the disease. All mice were randomly divided into a vehicle group and a plasminogen administration group according to the onset of the disease: 5 mice in the vehicle group, which were injected with 0.1 ml of vehicle (sodium citrate buffer)/mouse by tail vein every day; 4 mice in the plasminogen administration group, which were injected with 1 mg of plasminogen/0.1 ml of vehicle/mouse by tail vein every day. The vehicle and plasminogen were administered continuously under SPF environment, and the samples were collected at the near-death stage. The longest administration was 61 days. The gluteal muscle tissue collected was fixed in formalin fixative solution. The fixed tissues were dehydrated with gradient alcohol and transparentized with xylene before being embedded in paraffin. The thickness of tissue sections was 3 μm, and the sections were dewaxed and rehydrated and then washed once. The sections were immersed in antigen retrieval working solution (0.01 M sodium citrate buffer) to perform microwave retrieval: preheating for 5 minutes, high heating for 2 minutes, and low heating for 15 minutes. […] The green fluorescence color development of the corresponding anti-plasminogen secondary antibody was performed according to the instructions of the XTSA520 IHC kit (Alpha X Biotech, AXT6202500), washing 3 times with PBS for 5 minutes each time. […] The red fluorescence color development of the corresponding anti-TDP-43 secondary antibody was performed according to the instructions of the XTSA620 IHC kit (Alpha X Biotech, AXT6502500), washing 3 times with PBS for 5 minutes each time. […]

[7] = tail vein injection of 50 mg/kg

B1: plasminogen: human plasminogen purified from human donor plasma, in which human Lys-plasminogen and Glu-plasminogen are >98% (protein)
chain: KVYLSECKTGNGKNYRGTMSKTKNGITCQKWSSTSPHRPRFSPATHPSEGLEENYCRNPDNDPQGPWCYTTDPEKRYDYCDILECEEECMHCSGENYDGKISKTMSGLECQAWDSQSPHAHGYIPSKFPNKNLKKNYCRNPDRELRPWCFTTDPNKRWELCDIPRCTTPPPSSGPTYQCLKGTGENYRGNVAVTVSGHTCQHWSAQTPHTHNRTPENFPCKNLDENYCRNPDGKRAPWCHTTNSQVRWEYCKIPSCDSSPVSTEQLAPTAPPELTPVVQDCYHGDGQSYRGTSSTTTTGKKCQSWSSMTPHRHQKTPENYPNAGLTMNYCRNPDADKGPWCFTTDPSVRWEYCNLKKCSGTEASVVAPPPVVLLPDVETPSEEDCMFGNGKGYRGKRATTVTGTPCQDWAAQEPHRHSIFTPETNPRAGLEKNYCRNPDGDVGGPWCYTTNPRKLYDYCDVPQCAAPSFDCGKPQVEPKKCPGRVVGGCVAHPHSWPWQVSLRTRFGMHFCGGTLISPEWVLTAAHCLEKSPRPSSYKVILGAHQEVNLEPHVQEIEVSRLFLEPTRKDIALLKLSSPAVITDKVIPACLPSPNYVVADRTECFITGWGETQGTFGAGLLKEAQLPVIENKVCNRYEFLNGRVQSTELCAGHLAGGTDSCQGDSGGPLVCFEKDKYILQGVTSWGLGCARPNKPGVYVRVSRFVTWIEGVMRNN
- time within which plasminogen is almost completely metabolized (brain tissue) [1]: 12 to 24 h
- plasminogen level in the brain tissue ([1]; vs vehicle group): significantly higher
- plasma plasminogen level, 50 mg/kg group compared with 6 mg/kg group ([2]; tail vein): significantly higher
- time within which plasminogen is almost completely metabolized (plasma) ([2]; tail vein 50 mg/kg and 6 mg/kg, level decreases from 2 hours): 12 to 24 h
- plasma plasminogen level ([2]; tail vein injection of 6 mg/kg): increase significantly
- plasma plasminogen level [2, 7]: increase significantly
- level of human plasminogen in the nuclei of brain tissue [3]: significantly higher
- level of human plasminogen in the nuclei of kidney tissue [3]: significantly higher
- level of human plasminogen in the nuclei of spinal cord tissue [3]: significantly higher
- time within which plasminogen is almost completely metabolized (spinal cord tissue) [4]: 12 to 24 h
- plasminogen level in the spinal cord tissue ([4]; vs vehicle group): significantly higher
- ratio of brain tissue plasminogen level to blood plasminogen level ([5]; 2 hours): 3.47%
- ratio of spinal cord tissue plasminogen level to blood plasminogen level ([5]; 2 hours): 1.24%
- ratio of brain tissue plasminogen level to blood plasminogen level ([5]; 6 hours): 4.18%
- ratio of spinal cord tissue plasminogen level to blood plasminogen level ([5]; 6 hours): 1.16%
- ratio of brain tissue plasminogen level to blood plasminogen level ([5]; 12 hours): 8.51%
- ratio of spinal cord tissue plasminogen level to blood plasminogen level ([5]; 12 hours): 1.46%
- plasma plasminogen level, 50 mg/kg group compared with 6 mg/kg group ([6]; tail vein): significantly higher
- time within which plasminogen is almost completely metabolized (plasma) ([6]; tail vein 50 mg/kg and 6 mg/kg): 12 to 24 h
- plasma plasminogen level ([6]; tail vein injection of 6 mg/kg): increase significantly
- plasma plasminogen level [6, 7]: increase significantly
- co-localization of plasminogen with TDP-43 in muscle tissue (cytoplasm and nucleus) (TDP-43): co-localizes with TDP-43
- subcellular presence of plasminogen in muscle tissue (TDP-43): present in the cytoplasm (as indicated by Δ) and in the nucleus; also recorded: present in the cytoplasm (as indicated by Δ) and the nucleus
- positive staining of plasminogen in muscle tissue (TDP-43; up to 61 days, vs vehicle group): significantly more
